Experimental data reported in the domain aggregation screens of Martell et al. (2025).

Assay: soluble fraction after stress (log2 fold change); higher = more stays soluble; pooled small domains, quantitative proteomics
Settings: stress: 50 degC
In short: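 Quantitative proteomics served as the high-throughput read-out for pooled custom libraries of small protein domains. Each was stressed at 50°C. Aggregation propensity is expressed as the base-two log fold change in soluble protein after stress. A higher value means a larger share of the protein remains in solution.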

Sequence | soluble fraction (log2)
HMTSLYDILGIAKTADSQTIKTAFKKKALLYHPDKNNGNLKKEEIFKKISTAYQILSDPKSRANYDLSIA | -0.115
HMGLSIPLMGAKASDIEISTLNDEVQRKLKIIVKEQGHENLQRVVPLPSEAREIQAHFINGRLHLR | -0.0466
HMDAQLRVPDLTPYNYSELKENTSLYEGFTIEVVEERSTGDYAAGTVLDQDPKADTLIQDGDSTVIKLVIA | -0.12
HMSAQQTFLRDAMRRLNMTRDSFAERIGVRRRALDTWLLPEDSSEYRTMPSIVEKFVGEILGREA | -0.453
HMRWSDQKEIVTLSLDHVLVEKGRKTKEYSWREFRTFTAFEIKKSSKDQINLGFKSKGNTVIIGNF | -0.919
HMKDPSFELMSVAESFYRSGNVDHAVYALEKYLEVYADGDYTDRAHDLLSQARKGLTYPHGYPPLQI | -1.21
HMTDQYEVQNLVGLTVREAQEKEGVKDIFEVREVGSEFSAEYDAGLIVRQSPDAGEQRKGEGLVIEVWVSA | 0.0425
HMGPRVSAGPGRHRVQPGDTLDDIAARYRVSSRDLMLVNGLRNANHVEAGQTLKLPSNAVIA | 0.28
HMNARSTSYSDFIARVDKDEVASVRLDGETVTYQAADGTTYTTVKPESDPIAERLIAKGIEVNVVRQ | -0.49
HMAKSPYDVLGLKEDAPFDEVKKRYRELVKKYHPDILMGRGESEEMIEKSTRKLQEINEAYETIKQRA | 0.118
HMELNDEELIKGIQELLTKIGYDPGEINGVLGIKTSSAISAFQQSRNKAITGEADLDLLVQLQIELRKITT | -0.674
HMRAEELEQFVERLKNEVMNNFPLKELSDNELREKIENLVEIRLANVYVSIEQRVAIAEQIYSSIR | -0.0429
HMSGTYIVTVQANTLDIYKSMTSNDTIGKANKGDVFQILEDMGGGYAKVSYNDVEGYISIKDGDTSIDEM | -0.23
HMNTKDRIKQLAAQRKITIAELERKLHIANGTIGKWDKQNPSIEPLKKLADYFGVTTDYLLGRT | 0.162
HMTKQRSAIMNLLAERNTPLTAEEIGEAIAPSYPKLALSTVYRNLELFTNAGLLEKSFFQDGITRYSLTK | -0.429
HMPTSPKANFLKELPQEFTRKQAVTIGDKLNIKERTVDNYLAKLEQAGYLVKPKAGYYQKIKS | 0.128
HMRAPIGFRISNRRKSLKISQVALARLVGISPSYLNLIENNKRDVGGALLQRVALHLNIDIDDL | -3.02
HMPGTEAQDGEVLLDALRRIHPDSSTGTLRRMLTQGRVQVDGTTVHAAKAELTSGQHVEVVAR | 0.0101
HMTAPDDFIRAEVTASGKNGMAVAELSKRVRTRFKSFKVRELGYPHLAGYLADVEGVRVYKQGRENWVAK | -0.905

Sequence | soluble fraction (log2)
HMRRPRGVFNLVPGKRFGFITPDGGGEDVFAHLANVRAGHVAEDRNAVEYGIGRGPDGRDQAVDIVPMP | -0.128
HMGLASEVKTEDVLNEEKYDFEPDLIGNNNEAIYQNKQTGSYVLFDRNQNKVTKVLSAGEVLNHSKYNE | -0.0697
HMVDLLDETLIEFYAFANNLIKDLETNSEKYGGMSQFEKELIFNEQITQYQRKLKIDLQDEVG | -1.54
HMDVPTSSITEVKKSPMDVFAQARKAETGVYIFNREKIAGVMLTKEQYEALVEELNTLRDTL | -0.438
HMVEVPEQLRDLLERSIEDLAELSVRSRNSLQKENIQTLGDLVQRTEEEMLGIENFGKKSLTEIAAFL | -0.101
HMDSPRITMDQLRIGLYVYLDLTWFQHPFAFSHFKINSEDQIKTILGLGLKSVRYDPALSDPV | -2.67
HMLDVGDQLVKKLKDNDSLDFHFVNSKEANKGLKDGDYYMVITIPSNFSKNATTLLDKNPKKMVLNYTTNP | 0.0441
HMSNEKVVKFAQELLVDEERSAISPALISAKIDQVLMFKPAWNEGLDRDAVVNELVRRFSIW | -0.841
HMTKINAPMPGNILDVKVNVGDHVEANQLVLMLEAMKMENEIFTPVAGTVVGVHVKKGDSVNSDDLLISI | -0.228
HMGTRTILGIDPGSRKTGFGIIRLDGSRTHYVSSGVIRIPDTALPERLKIIFASLNEIIQQFQPQEV | 0.0673
HMDASFTYSLETHPAGVLVRVDGLEYETPFSILLPQGVHRLEVAGEERFFYLSETTHQFLEID | -0.901
HMIALKNLREEKRMTQAELSKDLEISPSAIGMYEQGRRVPDVSTLKKISAYFNVSIDYLLGNSTSKDI | -0.018
HMIMGTITKRTNPSGAIVYRAQIRIKKAGYPDFSESRTFSKKAMAVEWLKLREAELEMHPELLFR | -1.34
HMDSESGAIIRRAVAQLAPKFRSTIVLRLIEGYSTEETAQILQLPVGTVLSRLARAKVQLMNLLTPYKEL | -0.126
HMDFIEYIISEESKGLRADQAISMENDKFSRSLIQKWIKKGRVLVNGRKIKPKDIVNLNDKITINPEESIN | -0.143
HMVSDAELTSQATTAITAYPGTSVEVKEGQAHLSGTFATEADKQAAIDALKKIQDVKDVHDMATV | 0.123
HMTGLFSPTEQTRHSKTGATLYSVKLAERIERNAFQSLKKRAKEHDGYYSSFTRSFLFDTPEDAEAFRGT | -0.27
HMSGPSDRDLFDEALALLSGSGREPDYHEARIRLGTLVEQFPESKWAEGAKALLSMLDRVSALQV | 0.246
HMKSDVVFDITDGTVKAMLKFNRSDVTILNNDGKNYYLFTANGEFTFKYQDGSGEYYEKTVYVDWLEDE | -1.24
